Results from paper doi:10.1101/2024.05.05.592584 (bioRxiv, 2024).

What was measured:
Test in all cases: BLI
Settings in all cases: both partners purified
[1] = target: T1, SARS-CoV-2 P.1 (Gamma) NTD (SARS-CoV-2 P.1 (Gamma), strain)
T1 chain: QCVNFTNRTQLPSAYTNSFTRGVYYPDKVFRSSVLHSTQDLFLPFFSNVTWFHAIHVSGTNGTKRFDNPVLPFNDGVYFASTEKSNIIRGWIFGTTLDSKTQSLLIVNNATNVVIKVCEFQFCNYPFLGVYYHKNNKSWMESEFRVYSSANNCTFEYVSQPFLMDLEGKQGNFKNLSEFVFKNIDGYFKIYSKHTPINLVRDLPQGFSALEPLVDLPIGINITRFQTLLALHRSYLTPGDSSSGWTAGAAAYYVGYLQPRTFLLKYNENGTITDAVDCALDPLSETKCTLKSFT

[2] = target: T2, SARS-CoV-2 B.1.617.2 (Delta) NTD (SARS-CoV-2 B.1.617.2 (Delta), strain)
T2 chain: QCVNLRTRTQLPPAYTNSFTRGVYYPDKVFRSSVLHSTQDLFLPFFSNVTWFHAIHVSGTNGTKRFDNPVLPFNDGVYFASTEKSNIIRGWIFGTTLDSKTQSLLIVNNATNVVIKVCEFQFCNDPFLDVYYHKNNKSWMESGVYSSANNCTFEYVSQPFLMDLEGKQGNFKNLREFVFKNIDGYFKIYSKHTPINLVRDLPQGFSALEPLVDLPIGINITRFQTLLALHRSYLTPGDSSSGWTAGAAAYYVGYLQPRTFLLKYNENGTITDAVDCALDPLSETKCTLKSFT

SARS-CoV-2 BA.2.75.2 NTD = target: T3, SARS-CoV-2 BA.2.75.2 NTD (SARS-CoV-2 Omicron BA.2.75.2, strain)
T3 chain: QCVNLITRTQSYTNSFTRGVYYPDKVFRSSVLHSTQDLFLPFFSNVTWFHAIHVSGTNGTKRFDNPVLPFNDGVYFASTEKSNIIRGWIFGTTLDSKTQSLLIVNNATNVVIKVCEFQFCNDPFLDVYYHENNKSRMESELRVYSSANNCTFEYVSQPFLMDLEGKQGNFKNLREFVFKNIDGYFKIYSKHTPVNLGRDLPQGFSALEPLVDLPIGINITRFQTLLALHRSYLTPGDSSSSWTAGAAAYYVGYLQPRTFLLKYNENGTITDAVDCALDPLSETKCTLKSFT

SARS-CoV-2 EG.5.1 NTD = target: T4, SARS-CoV-2 EG.5.1 NTD (SARS-CoV-2 Omicron EG.5.1, strain)
T4 chain: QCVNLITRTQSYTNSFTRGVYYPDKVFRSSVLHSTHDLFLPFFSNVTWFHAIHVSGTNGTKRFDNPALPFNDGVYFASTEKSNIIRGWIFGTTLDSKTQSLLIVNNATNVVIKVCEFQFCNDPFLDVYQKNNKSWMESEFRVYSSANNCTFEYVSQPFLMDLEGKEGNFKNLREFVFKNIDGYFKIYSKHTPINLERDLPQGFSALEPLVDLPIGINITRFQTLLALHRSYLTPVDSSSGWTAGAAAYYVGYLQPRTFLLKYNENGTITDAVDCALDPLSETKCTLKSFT

SARS-CoV-2 XBB.1.5 NTD = target: T5, SARS-CoV-2 XBB.1.5 NTD (SARS-CoV-2 Omicron XBB.1.5, strain)
T5 chain: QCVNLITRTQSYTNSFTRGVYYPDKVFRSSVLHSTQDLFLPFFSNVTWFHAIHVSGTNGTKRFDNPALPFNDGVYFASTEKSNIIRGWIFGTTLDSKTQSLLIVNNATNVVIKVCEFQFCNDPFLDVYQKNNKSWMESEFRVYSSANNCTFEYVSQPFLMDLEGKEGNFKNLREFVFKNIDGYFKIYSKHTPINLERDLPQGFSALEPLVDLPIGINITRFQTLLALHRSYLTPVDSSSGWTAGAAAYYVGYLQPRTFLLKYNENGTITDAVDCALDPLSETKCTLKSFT

SARS-CoV-2 BA.4/BA.5 NTD = target: T6, SARS-CoV-2 BA.4/BA.5 NTD (SARS-CoV-2 Omicron BA.4/BA.5, strain)
T6 chain: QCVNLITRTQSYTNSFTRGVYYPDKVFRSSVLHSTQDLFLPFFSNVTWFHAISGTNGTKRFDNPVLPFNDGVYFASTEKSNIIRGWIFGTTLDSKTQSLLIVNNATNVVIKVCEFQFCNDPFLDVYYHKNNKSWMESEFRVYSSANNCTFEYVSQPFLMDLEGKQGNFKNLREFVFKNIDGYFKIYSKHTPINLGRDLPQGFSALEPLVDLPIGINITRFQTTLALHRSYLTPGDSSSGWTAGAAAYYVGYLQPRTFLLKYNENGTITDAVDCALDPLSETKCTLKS

SARS-CoV-2 BA.1 NTD = target: T7, SARS-CoV-2 BA.1 NTD (SARS-CoV-2 Omicron BA.1, strain)
T7 chain: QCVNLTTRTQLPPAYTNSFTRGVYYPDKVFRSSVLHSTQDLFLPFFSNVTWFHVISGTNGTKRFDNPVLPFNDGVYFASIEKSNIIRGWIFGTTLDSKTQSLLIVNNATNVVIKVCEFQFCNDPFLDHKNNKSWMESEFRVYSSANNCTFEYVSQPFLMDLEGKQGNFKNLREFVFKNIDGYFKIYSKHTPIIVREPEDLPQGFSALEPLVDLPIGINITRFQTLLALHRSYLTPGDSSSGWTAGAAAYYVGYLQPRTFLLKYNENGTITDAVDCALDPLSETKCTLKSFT

SARS-CoV-2 BA.2 NTD = target: T8, SARS-CoV-2 BA.2 NTD (SARS-CoV-2 Omicron BA.2, strain)
T8 chain: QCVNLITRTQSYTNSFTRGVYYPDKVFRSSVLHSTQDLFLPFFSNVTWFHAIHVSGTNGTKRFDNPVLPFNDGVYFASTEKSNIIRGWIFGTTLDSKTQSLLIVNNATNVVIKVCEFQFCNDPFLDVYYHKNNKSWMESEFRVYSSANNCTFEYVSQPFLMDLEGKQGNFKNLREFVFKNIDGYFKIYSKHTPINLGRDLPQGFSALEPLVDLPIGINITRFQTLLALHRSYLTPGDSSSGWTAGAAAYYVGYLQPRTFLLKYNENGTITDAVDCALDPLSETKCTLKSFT

SARS-CoV-2 XBB.1.16 NTD = target: T9, SARS-CoV-2 XBB.1.16 NTD (SARS-CoV-2 Omicron XBB.1.16, strain)
T9 chain: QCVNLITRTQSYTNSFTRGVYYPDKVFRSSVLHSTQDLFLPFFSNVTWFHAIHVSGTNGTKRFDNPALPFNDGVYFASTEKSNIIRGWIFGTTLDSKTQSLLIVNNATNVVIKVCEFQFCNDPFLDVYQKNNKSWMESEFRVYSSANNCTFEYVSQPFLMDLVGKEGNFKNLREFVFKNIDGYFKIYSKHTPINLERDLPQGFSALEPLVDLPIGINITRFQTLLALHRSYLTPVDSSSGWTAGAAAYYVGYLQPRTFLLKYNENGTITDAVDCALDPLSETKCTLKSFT

SARS-CoV-2 XBB.1.5 RBD = SARS-CoV-2 XBB.1.5 RBD (SARS-CoV-2 Omicron XBB.1.5, strain)
SARS-CoV-2 EG.5.1 RBD = SARS-CoV-2 EG.5.1 RBD (SARS-CoV-2 Omicron EG.5.1, strain)
SARS-CoV-2 HV.1 RBD = SARS-CoV-2 HV.1 RBD (SARS-CoV-2 Omicron HV.1, strain)
SARS-CoV-2 BA.4/BA.5 RBD = SARS-CoV-2 BA.4/BA.5 RBD (SARS-CoV-2 Omicron BA.4/BA.5, strain)

B1: C1533 IgG (antibody, V domains shown)
VH: QVQLVQSGAEVKKPGSSVKVSCKTSGVIFSRNAFSWVRQAPGQGLEWMGRIIPFLDVTNSAQEFQGRVTLNADKSTSTVYMELSSLRSEDTAIYYCARHNGDPYDFWSGYNTWAGGLDVWGQGTTVTVSS
VL: QSVLTQPPSASGTPGQRVTISCSGSGSNIGSNAVNWYQQLPGTAPKLLIYNQNQRPSGVPDRFSGSKSGTSASLAIGGLQSEDEADYYCATWDDNLSGLVFGGGTKLTVL
notes: copies: 2 + 2
For B1, which Kd [1] is on record?
The Kd was 24.9 nM.

What about the koff [1] of the same binder?
Its koff is 0.00107 s⁻¹.

And the kon [1]?
The kon was 43100 M⁻¹ s⁻¹.

B2: C1596 IgG (antibody, V domains shown)
VH: QVQLVQSGAEVKKPGSSVKVSCKASGGTFINYAVTWVRQAPGQGLEWMGGIIPILGIPNYAQKFQGRVTITADKSTSTAYMELSSLRSEDTAVYYCARVPQAGAAQGHYYYYYGMDVWGQGTTVTVSS
VL: not shown
notes: copies: 2 + 2
How did the Kd [2] turn out when B2 was run?
Its Kd is 124 nM.

What about the Kd (SARS-CoV-2 BA.2.75.2 NTD) of the same binder?
Its Kd is 607 nM.

What about the Kd (SARS-CoV-2 EG.5.1 NTD) of the same binder?
Its Kd is 410 nM.

And the Kd (SARS-CoV-2 XBB.1.5 NTD)?
Its Kd is 529 nM.

What about the Kd (SARS-CoV-2 BA.4/BA.5 NTD) of the same binder?
Its Kd is 674 nM.

And the Kd (SARS-CoV-2 BA.1 NTD)?
The Kd was 88.2 nM.

What about the Kd [1] of the same binder?
Its Kd is 282 nM.

And the Kd (SARS-CoV-2 BA.2 NTD)?
Its Kd is 685 nM.

And the Kd (SARS-CoV-2 XBB.1.16 NTD)?
Its Kd is 591 nM.

B3: C952 IgG (antibody, V domains shown)
VH: EVQLVQSGAEVKKPGESLTISCKDSGNSFTIYWIGWVRQMPGKGLEWMGMIYPGDSGTRYSPSFEGQVTISADESINTAYLQWRSLKASDTAMYYCVRGIAVDWYFDLWGRGTLVTVSS
VL: QSVLTQPPSVSGAPGQRVTISCTGSSSNIGAGFDVHWYQQLPGTAPKLLIYGNNNRPSGVPDRFSGSKSATSASLAITGLQAEDEADYYCQSSDSSLSGLYVFGTGTNVIVL
notes: copies: 2 + 2
What does the source list for B3?
Kd (SARS-CoV-2 XBB.1.5 RBD): 99.3 nM; koff (SARS-CoV-2 XBB.1.5 RBD): 0.0046 s⁻¹; kon (SARS-CoV-2 XBB.1.5 RBD): 46300 M⁻¹ s⁻¹; Kd (SARS-CoV-2 EG.5.1 RBD): 180000 nM; koff (SARS-CoV-2 EG.5.1 RBD): 0.289 s⁻¹; kon (SARS-CoV-2 EG.5.1 RBD): 1600 M⁻¹ s⁻¹; Kd (SARS-CoV-2 HV.1 RBD): 939000 nM; koff (SARS-CoV-2 HV.1 RBD): 0.037 s⁻¹; kon (SARS-CoV-2 HV.1 RBD): 39.4 M⁻¹ s⁻¹; Kd (SARS-CoV-2 BA.4/BA.5 RBD): 8.22 nM; koff (SARS-CoV-2 BA.4/BA.5 RBD): 0.00358 s⁻¹; kon (SARS-CoV-2 BA.4/BA.5 RBD): 435000 M⁻¹ s⁻¹

B4: C1520 IgG (antibody, V domains shown)
VH: EVQLVESGGGLVQPGGSLRLACVASGFTFSIYEMNWVRQAPGKGLEWVSYITTSGHARYNADSVKGRFTISRDNSKNSFYLQMNSLRAEDTAIYYCARPQYHYYDTSTYHSYGFDIWGQGTMVTVSS
VL: QLVLTQSPSASASLGASVNLTCTLSSGHNSYAIAWHQQQPEKGPRYLMSLNSDGSHTKGDGIPDRFSGSSSGAERFLTISSLQSEDEADYYCQTWDTGIRVFGGGTRLTVL
notes: copies: 2 + 2
Which Kd [2] does the source give for B4 here?
The Kd was 47 nM.

And the koff [2]?
The koff was 0.00141 s⁻¹.

And the kon [2]?
Its kon is 30000 M⁻¹ s⁻¹.

And the Kd (SARS-CoV-2 BA.2.75.2 NTD)?
Its Kd is 185 nM.

And the koff (SARS-CoV-2 BA.2.75.2 NTD)?
The koff was 0.00569 s⁻¹.

What about the kon (SARS-CoV-2 BA.2.75.2 NTD) of the same binder?
The kon was 30700 M⁻¹ s⁻¹.

And the Kd (SARS-CoV-2 BA.4/BA.5 NTD)?
The Kd was 11.4 nM.

And the koff (SARS-CoV-2 BA.4/BA.5 NTD)?
The koff was 0.000528 s⁻¹.

What about the kon (SARS-CoV-2 BA.4/BA.5 NTD) of the same binder?
Its kon is 46300 M⁻¹ s⁻¹.

And the Kd (SARS-CoV-2 BA.1 NTD)?
The Kd was 118 nM.

What about the koff (SARS-CoV-2 BA.1 NTD) of the same binder?
Its koff is 0.00418 s⁻¹.

And the kon (SARS-CoV-2 BA.1 NTD)?
The kon was 35500 M⁻¹ s⁻¹.

What about the Kd [1] of the same binder?
Its Kd is 230 nM.

And the koff [1]?
Its koff is 0.00301 s⁻¹.

And the kon [1]?
Its kon is 13100 M⁻¹ s⁻¹.

And the Kd (SARS-CoV-2 BA.2 NTD)?
Its Kd is 14.3 nM.

What about the koff (SARS-CoV-2 BA.2 NTD) of the same binder?
The koff was 0.000514 s⁻¹.

And the kon (SARS-CoV-2 BA.2 NTD)?
Its kon is 36000 M⁻¹ s⁻¹.
